Reference: patent publication US20040198656A1, “Methods of screening molecules that are used to prevent cardiovascular diseases” (priority 2001, published 2004)

Tests used:
Assay type in all cases: in vivo
[1] = Triglyceride levels in AA4RP transgenic mice on a lipid-rich diet
Experimental: Samples from AA4RP transgenic mice or control mice maintained on a lipid-rich diet were diluted 1/3 or 1/5in physiological serum, then assayed for triglycerides against a calibration curve prepared with CFAS lipid calibrator, Ref. 759350 (Boehringer Mannheim GmbH, Germany). The calibration curve covered a concentration range of 16 to 500 μg/ml. 100 μl of each sample dilution or calibration point were deposited in each well of a 96-well titration plate. Next, 200 μl of triglyceride reagent Ref. 701912 (Boehringer Mannheim GmbH, Germany) were added to each well and the plate was incubated at 37° C. for 30 min. Optical densities (OD) were read on a spectrophotometer set at 492 nm. Triglyceride concentrations in each sample were calculated from a standard curve plotted as a linear equation y=ax+b, where y represents OD and x represents triglyceride concentration.

HL = HL activity in post-heparin plasma (triolein, no apo CII, 1 M NaCl); settings: human AA4RP transgenic mice, FVB/N background
Experimental: (§1) The test was carried out on post-heparin plasma (collected 5 min after heparin injection) from transgenic mice and control mice with a FVB/N genetic background. Total lipase activity was determined by incubation with radiolabelled triolein and in the presence of a cofactor (apo CII). HL activity was determined after incubation of each plasma sample with triolein but in this case in the absence of apo CII and in the presence of 1 M NaCl to eliminate LpL activity. Lipase activity in each plasma sample was then calculated by determining the number of moles of free fatty acid. Finally, LpL activity was calculated by subtracting HL activity from total lipase activity.

[2] = Triglyceride distribution in VLDL, LDL and HDL (Superose 6 FPLC) of plasma; settings: AA4RP transgenic mice versus control mice, plasma fractions
Experimental: The distribution of triglycerides in VLDL, LDL and HDL was studied on 200 μl fractions of plasma from AA4RP transgenic mice or control mice maintained on a lipid-rich diet.
The different particles were fractionated on a Pharmacia Superose 6 column integrated in an AKTA FPLC system (Pharmacia Biotech, Umeå, Sweden). The different fractions were eluted with 0.01 M PBS, 0.1 M NaCl, pH 7.2 at a flow rate of 0.2 ml/min. The triglyceride concentration in each fraction was determined as described hereinabove.

total lipase = experiment: Total lipase activity in post-heparin plasma (radiolabelled triolein, apo CII); settings: human AA4RP transgenic mice, FVB/N background
Experimental: as §1

apo CIII = experiment: Apo CIII assay by immuno-nephelometry in mice overexpressing human AA4RP; settings: AA4RP transgenic mice, lipid-rich diet
Experimental: Apo CIII in mice overexpressing human AA4RP was assayed by immuno-nephelometry on an ARRAY® immunochemistry system (Beckman Coulter, Villepinte, France). Pooled sera from normolipidic mice were used as standard; the apo CIII concentration therein was 25 μg/ml. A calibration curve from 4 μg/ml to 25 μg/ml was prepared by diluting the standard in 0.01 M potassium phosphate pH 7.2.
Plasma samples from mice overexpressing human AA4RP or not, maintained on a lipid-rich diet, and plasma samples from knock out homozygous (−/−), heterozygous (+/−) or wild type (+/+) mice were diluted 1/6 or 1/12 in the same conditions as the standard. Forty-two microliters of each calibration point and each sample from the different mice under study were incubated with 42 μl of mouse anti-apo CIII (in a reaction cell containing polyethylene glycol (PEG)). The apo CIII concentration in the sample is directly proportional to the light intensity reflected by the precipitate formed during the antigen-antibody reaction.

LpL = LpL activity in post-heparin plasma (total lipase minus HL); settings: human AA4RP transgenic mice, FVB/N background
Experimental: as §1

B1: AA4RP: Protein of 366 amino acids (SEQ ID NO 1), apolipoprotein AIV related protein; overexpressed in transgenic mice (protein, listed as Homo sapiens)
chain: MASMAAVLTWALALLSAFSATQARKGFWDYFSQTSGDKGRVEQIHQQKMAREPATLKDSLEQDLNNMNKFLEKLRPLSGSEAPRLPQDPVGMRRQLQEELEEVKARLQPYMAEAHELVGWNLEGLRQQLKPYTMDLMEQVALRVQELQEQLRVVGEDTKAQLLGGVDEAWALLQGLQSRVVHHTGRFKELFHPYAESLVSGIGRHVQELHRSVAPHAPASPARLSRCVQVLSRKLTLKAKALHARIQQNLDQLREELSRAFAGTGTEEGAGPDPQMLSEEVRQRLQAFRQDTYLQIAAFTRAIDQETEEVQQQLAPPPPGHSAFAPEFQQTDSGKVLSKLQARLDDLWEDITHSLHDQGHSHLGDP
[1]; Student's t test p<0.001
  Triglyceride levels versus control mice: significantly lower
[1]; mean
  Triglycerides: 0.361 mg/mL
HL
  HL activity versus controls: significant increase
[2]
  Accumulation of triglyceride-rich particles after a lipid-rich diet: not observed
Total lipase
  Total lipase activity versus controls: significant increase
Apo CIII
  Apo CIII level versus control mice: approximately three times lower
Apo CIII; plasma, mean
  Apo CIII: 30.70 µg/mL
LpL
  LpL activity versus controls: significant increase
